Data from patent US12331319B2, “Respiratory and sweat gland ionocytes” (The Broad Institute, Inc., priority 2017, dated 2025).

Test system: cultured proximal and distal airway epithelium
Test: IL-13-induced mucous metaplasia (goblet cell differentiation) in cultured proximal and distal airway epithelium (ALI)
Assay type: cell-based, mouse
Conditions: rIL-13 25 ng/mL vs control; epithelia from proximal vs distal trachea, Foxj1-GFP mice n=6; p<0.001
Method: Transwell cultures. Cells were cultured and expanded in complete SAGM (small airway epithelial cell growth medium; Lonza, CC-3118) containing TGF-β/BMP4/WNT antagonist cocktails and 5 μM Rock inhibitor Y-27632 (Selleckbio, S1049). To initiate air-liquid interface (ALI) cultures, airway basal stem cells were dissociated from mouse tracheas and seeded onto transwell membranes. After reaching confluence, media was removed from the upper chamber. Mucociliary differentiation was performed with PneumaCult-ALI Medium (StemCell, 05001). Differentiation of airway basal stem cells on an air-liquid interface was followed by directly visualizing beating cilia in real time after 10-14 days. […]
Statistical analysis of proximodistal mucous metaplasia. For the analysis in FIG. 18H,I, the extent of goblet cell hyperplasia was assessed using counts of Muc5ac^+ goblet cells, normalized to counts of GFP^+ ciliated cells. To quantify differences in the count values between the samples in different conditions (n=6, Foxj1-GFP mice), Applicants fit a negative binomial regression using the ‘glm.nb’ function from the ‘MASS’ package in R. Pairwise comparisons between means for each condition were computed using post hoc tests and p-values were adjusted for multiple comparisons using Tukey's HSD, implemented using the function ‘pairs’ from the ‘emeans’ package in R.

B1: rIL-13: recombinant murine IL-13 (Peprotech) used to induce mucous metaplasia (protein, UniProt P20109 19-131, looked up)
Interleukin-13: APGPVPRSVSLPLTLKELIEELSNITQDQTPLCNGSMVWSVDLAAGGFCVALDSLTNISNCNAIYRTQRILHGLCNRKAPTTVSSLPDTKIEVAHFITKLLSYTKQLFRHGPF
- induction of goblet cell differentiation (Muc5ac+ goblet cells / GFP+ ciliated cells): much higher induction of goblet cell differentiation in the distal epithelium
